According to the DeepSol protein solubility set:

Test: soluble on expression in E. coli; label from the status in PepcDB or PDB records

Sequence | soluble on expression in E. coli
ISNKHFEQAIERVVAGMEKKTQVLQKEEKKTVAYHEAGHAIAGWFLQHADPLLKVSIIPRGKGLGYAQYLPKEQYLYSKDQLLDRMCMTLGGRVAEEIFFGRITTGAQDDLQKVTQMAYSQVVKFGMSEKVGPLSFETPAPGEMAFDKPYSEATAQLIDQEQFADLPEILDSGNLPICRKFSIPAICRFAGNFQFRQFANLPNCRKFSIPTICQFAGNFNFQKIADLPEKIVRDLVMNALRRTRDLLLEKRSDIERVALRLLEKEILNREDMIEL | not soluble
ISNRIKGKTVLVTGAGGSIGSEICRQISAFQPKEIILLGHGENSIHSIYTELNGRFGKHIVFHTEIADVQDRDKMFTLMKKYEPHVVYHAAAHKHVPLMEHNPEE | not soluble
ISVLDLTPVSTGQQPGEALRHTLELAEVADSYQYTRFWIAEHHNSGAFVSAATEILIALAAARTGRIRVGSGGVMLPNHSPLKVAENFMSLEALFPGRIDLGLGRAPGTDGRTALALRRSREALAADDFPTQIALLRAFAGETPWPAGSVFDGVLAEPRGVKLPPLWILGSSLYGAQLAGELGVGYAFAYHFSQEDPAVAVQTYHRHFRPGPLAEPYAILGVNALAAPTEDEARDLSLTSAALSLGILSGQRGVLRSPEEARQWLQEMDTDPAKLLKKARIGTPEQVWASLQELGESTGAQEMLVTTYAHDPLKRQQSYRLLAQ | not soluble
ITELTNIHLIKGNLQANSKNEVFAELAQMLLENNRISNKEDFLNDIEIRERLSVTSMDGIAYPHSKSKAVTKPAIAVGVKHEGIEYGDEEGIKPTVFFMIASPDNGADHHIYVLQELFGKFSEEFIEDIHNAKNEHQILNISIQS | soluble
IYAYVPLRTPENTGHLALLDGQLELAYQPIVEVAGSDTAQYQVLLRLRKADGNLLSAGLVIPAAEAAGRIMELDQQVIEQALDILKLHQDTNQQLRLFVSQSVRTLIHEGFSDWIIKNLRERNVNGTGLVIDLRLQDAVIHAIPLKQLCKELLKHNVKFCLSQFESNSEATVLFSELPLNFVRLSQHFGDAHNHPERQKELPLLIEQAHEHNLHVIGQCIEDAQAATFMWMNGVDLIQGNLFQNV | not soluble
IYGYVEKATLIDQNLTLSAKLDTGAKSASLHAVNITEIEKKGIPYLRFTVPTKTGDYSFEGEYVGKVKIKVRSSETNPGLLRTTPIKRPVVLLNIKLGDKVRTIKVNLTNRKRFLYPLLLGRDAIIDFNGAVDPALTFTTKSK | soluble
KAFIDIFDSFDPEPIACGSIAQVYKGVLEGKPVAVKILRPHLIDIINIDLSILDDFKPVMKKVMGVGKNFDIDAFLLEIREMLTREVDLRIEAVNMRRFEDNFKNVKNVSVPKIYPDYC | not soluble
KDADVDITLIDRTNHHLFQPLLYQVATGILSSGEIAPQTRQVLAQQNNVHVLKAEVTDIDTESKTVVADLDDYSKTIEYDSLIVAAGAGQSYFGNDHFAEFAPGMKTIDDALELRARIIGAFERAEMCEDPKERERLLTFVIVGAGPTGVELAGQLAEMAHRTLSGEYTQFTPSNAKIILLDGAPQVLPPFGKR | not soluble
KDAVLVNSELKNIYMKDVINKTNMKITKKIGTQLIFNTNEKTRVWDDDNYNKVISSNVSPAQERRFKEEEEVDIYALIKSYSVICKEQYNYVDGGLIKTSDREKLDSTIYMNIFGEQIPLKEQSKYKITFQNKFVTFQEIDVRLRKSLMSDNRIKLYEHNSICKKGYWGIHYKDNTTKFTDLFTHPNYTDNETIDMSKVSHFDVYLNEEFSKN | soluble
KEDMATSELNKTVQKVEEVSKKIKNKAKPKVVWASVYEGSAYIAPKDSYVDNMIKMAGGINACASIDSNEGRVSIEQLHEVAKDADIFVYSSSSDYAPNLDSIKSSAPVLADLDVVKNGNLWVFAPDYYQSVDKTDELIVDLVEMFHPGTTGEKIKHYINYDK | not soluble
KGFFALSSCTLGLGLILTACGARGKFDQVDDGVIKLATSIQNKDSIAALNTIYKKYKERHPGSYPVQNFQVPGGYSGLRNDIRTRLSAKDGNNFYNI | not soluble
KGTSENKSTTATDTVQAEKPQSGTIHLTRAEFLKKIADYENHSKEWKYLGDKPAIVDFYADWCGPCKMVAPILEELSKEYAGKIYIYKVNVDKEPELARDFGIQGIPTIWFVPMKGEPQVNMGALSKEQLKGYIDKVLLKQ | soluble
KIIHIDCDCFYAALEMRDDPSLRGKALAVGGSPDKRGVVATCSYEARAYGVRSAMAMRTALKLCPDLLVVRPRFDVYRAVSKQIHAIFRDYTDLIEPLSLDEAYLDVSASPHFAGSATRIAQDIRRRVAEELHITVSAGVAPNKFLAKIASDWRKPDGLFVITPEQVDGFVAELPVAKLHGVGKVTAERLARMGIRTCADLRQGSKLSLVREFGSFGERLWGLAHGIDERPVEVDSRRQSVSVECTFDRDLPDLAACLEELPTLLEELDGRLQRLDGSYRPDKPFVKLKFHDFTQTTVEQSGAGRDLESYRQLLGQAFARGNRPVRLIGVGVRLLDLQGAHEQLR | not soluble
KIQEWLGESDYSDFLSVVEAVHDSGPSFVLQAMKSLDKYDAMMCISVDSMVNRIQELIDDTMVMSTNNPWGVIPSEGGAGLIFCRRNTVETLKLKPLAQLGYIDTELNTSDRRGMYRLVQRASKKLTAFGEVYSDMTNLRAHSEDYGFALGAKAERFINPEQPLLINE | not soluble
KKLNDFQEDAVNTILYSNKRKFLIHGVTGSGKTEIYMHLVKKMIEDNKQSIILVPEISLTPQMIERFKGRFGLNVAVFHSKLSDGERYDEWIRVKNGEVKVAVGARSALFLPFDKLGLIVIDEEHEGSYKSESDPKYNAIEVAEMKSAIEDCILVLGSATP | not soluble
KKNYALSFNANVGFNKNKVKSLGSLMDYSADSGWASTDIQSDFKVQPGHSVGEIYGFVSDGRYEVSDFEGFIDGKWVLKAGVADASDIIGEKYLRPGAMKLKNVDGSEDNKVTKDDQKVIGDTNPFCSGGFSVNARVYGFDLTANFTYSIGNDIYNANKIEYTSSSKYKYRNMIDVMAEEKRWTNLNADGTICNDPTQLAAMNANTSMWSPWTQKYVLTDWAVEDGSFLRLATLSIGYTLPQTLTRKVGIQNLRFYATGYNLFCITNYSGFDPEVSTRTKSALTPGVDYSAYPRSRQYVIGLNLTF | not soluble
KKRIQTEHCSYNRRRDYPLFKFIEYVLYWGHHYTVSISEKVQEELVKFMPRYQHKYRVVHNGVDLNRFPMTAKQAHDISEKATINIGMVGRLHEHKDHETLIHAIAKLPECYHLHLAGDGDRKASLQRLAQSLNVSPRVHFHGVVSDIPRFLSDMDIYVQSSHVE | not soluble
KKTSGNQDEILVIRKGWLTINNIGIMKGGSKEYWFVLTAENLSWYKDDEEKEKKYMLSVDNLKLRDVEKGFMSSKHIFALFNTEQRNVYKDYRQLELACETQEEVDSWKASFLRAGVYPERV | soluble
KLEGAFAKGTNVLMADGSIECIENIEVGNKVMGKDGRPREVIKLPRGRETMYSVVQKSQHRAHKSDSSREVPELLKFTCNATHELVVRTPRSVRRLSRTIKGVEYFEVITFEMGQKKAPDGRIVELVKEVSKSYPISEGPERANELVESYRKASNKAYFEWTIEARDLSLLGSHVRKATYQTYAPILYENDHFFDYMQKSKFHLTIEGPKVLAYLLGLWIGDGLSDRATFSVDSRDTSLMERVTEYAEKLNLCAEYKDRKEPQVAKTVNLYSKVVRGNGIRNNLNTENPLWDAIVGLGFLKDGVKNIPSFLSTDNIGTRETFLAGLIDSDGYVTDEHGIKATIKTIHTSVRDGLVSLARSLGLVVSVNAEPAKVDMNGTKHKISYAIYMSGGDVLLNVLSKCAGSKKFRPAPAAAFARECRGFYFELQELKEDDYYGITLSDDSDHQFLLANQVVVHACGER | soluble
KLMKVNHAADAAEEGLVSDPLEWTGVRIGPGINGTIAQLPTLAGEEIIATRVVHSKTFHSLAAPNDRLHEGMVLVIHGTPDALERAIAKVGKQQDVPIEDTDLVYSRFTVSSKAVVGRKISDLDTVRSGFIISRLRRGDADVVPEPDDVLHYSDRVRVIAPANRMSEVRRFLGDSERSLADVD | not soluble
KPMKILLANPRGFCAGVDRAISIVERALELYQPPIYVRHEVVHNRFVVEGLKQRGARFVEELNEVPDDNIVIFSAHGVSQAVRQEAKERSLTVFDATCPLVTKVHMEVARASRKHMEVVLIGHAGHPEVEGTMGQYASDTGGMYLVEKPEDVVSLQAKVKDPSNLHYVSQTTLSVDETADVIDELRRVFPKIQGPRKDDICYATQNRQDAVRILAEQVDVMVVVGSKNSSNSTRLKELAEKLGTPGYLIDCPQDIDPEWFVDAQLIGVTAGASAPEELVNQILDRIKELGAT | not soluble
KQEVSGQVIYLNRGKSFFAFIKEYLEKETGYKKGVKWNRIALDEVEIITSEMSQARKENIKEAFLDGAVKIIIGTATIREGIDLQRKGTVIYNCYPDWNPTDIRQLEGRIWRQGNE | not soluble
KRFGWTNELMFLFAPIPWSRLPYHSIGYRASGRSYARKEHKPFRYNGFSPGIGINSCLWWKVSVRDEYIFRIGLNVGYEYMDQLYAYRHFKVNEEKPLSSLSQRLKHIGHIGLNFALSLN | not soluble
KRIVLGVGGGIAAYKSAELVRRLRDQGAEVRVVMTQGGREFITPLTLQALSGHPVHTDLLDPAAEAAMGHIELARWADLVLIAPATADLMARLVQGVANDLLTTLVLATDAQIALAPAMNQAMWRDTATQANAELLRQRGFHLFGPAAGSQACGDVGLGRMLEAEELAQRAADCFQRQALTGVHVLITAGPTQENIDPVRYITNHSSGKMGFALAEAAVEAGARVTLVTGPVHLPTPDRVQRVDVVSARDMLAACEAAMPCDLLIASAAVADYRPEVVAAHKLKKDPTSGEGLLLQLVRNPDILATLAQREDRPFSVGFAAETENLLDYAARKLKDKNLDLIVANDVANPSIGFNSDENAITVIDRDLHPSTFAQTSKGKIARQLVAFIAD | not soluble
KRVFGFVSAKGGDGGSCIAANFAFALSQEPDIHVLAVDISLPFGDLDMYLSGNTHSQDLADISNASDRLDKSLLDTMVQHISPSLDLIPSPATFEKIVNIEPERVSDLIHIAASFYDYIIVDFGASIDHVGVWVLEHLDELCIVTTPSLQSLRRAGQLLKLCKEFEKPISRIEIILNRADTNSRITSDEIEKVIGRPISKRIPQDEDAMQESLLSGQSVLKVAPKSQLSKTIVDWALHLNGVSRPNKRSIWERLKIK | soluble
KSCCSCCPAGCEKCAKDCVCKGEEGAKAEAEKCSCCQ | soluble
KSITITTPYFVPSEILLHTLRTTAHRGVEVKLILPKKNDSLMVNWASKSFFETLLKAGVQIHEFNGGLLHTKSVVIDESHCIIGTVNLDMRSFWLNFEVSLIVDDPEFTKQLSWVLDGYLEQSTQVCFDTWRHRSWGNRFTERFFSMFSPLL | not soluble
KSIYLQSPYFIPDQSYINALKMAANSGVEVNLMIPCKPDHPFVYWATFSNAADLLDSGVNIYTYQNGFIHSKILMIDDEISSIGSANMDFRSFELNFEVNAFIYDEDIAKQLRQAFEKDIEQSKLLTKEVYDKR | not soluble
KSLTLVLHRDSGSLGFNIIGGRPSVDNHDGSSSEGIFVSKIVDSGPAAKEGGLQIHDRIIEVNGRDLSRATHDQAVEAFKTAKEPIVVQVLRRT | soluble
